Primed or numbered codes have the meaning given here. Where no end group is shown, it is not given here. [ ]: non-standard residue; d: D form. PEG10′ = non-peptide PEG10 spacer
Target: BMP2 (Bone Morphogenetic Protein 2) (UniProt P12643 283-396)
Test: ELISA: composition (10 uM) pre-bound to DBM, serial dilutions of BMP-2, detected with anti-BMP-2 antibody
Method: A binding assay was performed using ELISA; and the resultant absorbance observed across the concentration range of pharmaceutically active agent yielded a binding curve and rough dissociation constant of the composition which were used to calculate an EC50. Appropriate controls, including absence of the composition, were included in the assay.
As a specific example, DBM was placed in a microtiter plate at a concentration of 3 mg equivalents per well, and then the wells and DBM were blocked with buffer containing 1% BSA for 1 hour at room temperature. The buffer containing 1% BSA was then aspirated from each well, and added to each of the wells was 100 μl of buffer containing 10 μM of the respective composition embodiments. The microtiter plates were incubated for 1 hour at room temperature on a plate shaker. The DBM was then allowed to settle, and the buffer was then aspirated from the wells. The DBM was washed three times with buffer-T, and then serial dilutions of BMP-2 were added to the wells in 100 μl of buffer. The microtiter plates were then incubated for 1 hour at room temperature on a plate shaker. The DBM, having composition bound thereto, was then allowed to settle, and then buffer was aspirated from the wells. The DBM-composition combination was washed three times with buffer-T. Commercial murine anti-BMP-2 antibody was diluted 1:1000 in buffer containing 1% BSA, and 100 μl was added per well. The plates were incubated for 30 minutes at room temperature on a plate shaker, and then the wash step was repeated. Commercial anti-mouse antibody labeled with alkaline phosphatase was diluted 1:1000 in buffer containing 1% BSA, and 100 μl was added per well. The plates were incubated for 30 minutes at room temperature on a plate shaker, and then the wash step was repeated. Added to each well was 200 μl of substrate pNPP, and the plates were incubated at room temperature on a plate shaker to develop the assay. 100 μl of solution was removed from each well and added to a respective well of a new microtiter plate which was then read on a spectrophotometer and the absorbance was recorded at 405 nm. An estimate of the relative affinity, binding specificity, EC50 of the composition for pharmaceutically active agent can be made by determining the concentration of peptide that provides one-half the maximal signal in the assay.

Chain of BMP2 (Bone Morphogenetic Protein 2) (P12643 283-396 limits assumed): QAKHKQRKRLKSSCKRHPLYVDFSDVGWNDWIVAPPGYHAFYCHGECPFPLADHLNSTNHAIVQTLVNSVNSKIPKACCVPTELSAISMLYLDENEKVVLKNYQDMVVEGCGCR

EC50	Binder
< 10 nM	SWWGFWNGSAAPVWSRGSSESAGAWEAFSSLSGSRVGSSGK (also: biotin linked to C-terminal GSSGK linker, site not given here)
< 10 nM	SFGSWWWGSGAASSRG[PEG10′]GGGAWEAFSSLSGSRVGSSGK (also: C-terminal amino linker biotinylated)
< 10 nM	SFGSWWWGSGAASSRGSSGGGALGFPLKGEVVEGWAGSSGK (also: biotin linked to C-terminal GSSGK linker, site not given here)
< 10 nM	SWWGFWNGSAAPVWSRGSSGAGAWEAFSSLSGSRVGSSGK (also: biotin linked to C-terminal GSSGK linker, site not given here)
< 10 nM	SWWGFWNGSAAPVWSRGSSGAGALGFPLKGEVVEGWAGSSGK (also: biotin linked to C-terminal GSSGK linker, site not given here)
< 10 nM	SFGSWWWGSGAASSRG[PEG10′]AGAWEAFSSLSGSRVGSSGK (also: C-terminal amino linker biotinylated)
